Tested on: MS2 coat protein
Experiment: apparent KD of MS2 coat protein; higher = weaker reporter binding
Conditions: Eterna round: R107; input ligand: theophylline 2 mM
Method in brief: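 Designed RNA switches were made by on-chip transcription from Illumina sequencing clusters and then titrated with SNAP-549-labelled MS2 coat protein. Twofold steps ran from 0.7 or 1.5 nM to 3 µM, each lasting 0.8–1.5 h early and 10–20 min late, in 100 mM Tris-HCl pH 7.5, 80 mM KCl, 4 mM MgCl2, without or with constant ligand. Apparent KD is the per-design median of normalised cluster binding-curve fits.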

| Sequence | apparent KD of MS2 coat protein [nM] |
| --- | --- |
| UGUCGUAGACAUGAGGAUCACCCAUGUCCACGAGGACCGGUACGGCCGCCACUCGGGAUAUAAACCGUUACGGGUGGGUGGUGUU [Maarlainin] | 21.2 |
| AGAGUUAGACAAAAGUCUAGCUCACCAGAAGGAGCGUCCGAAAGGACAGGUAGGUCGCUGGUGCACGAGGAUCACCCGUGUUCCU [ArgAS 21 #OpenEnded #AlternativeMS2] | 118 |
| GCAGUGGGUUAUAAGUAAUAGAAUUCUGAAGGAGCGUGAUGAAACACAGGUAGGUCGCAGGAACAUGAGGAUCACCCAUGUACGG [Same State Arginine A GF20] | 37.6 |
| GGCACCAGGCGAAGGAGCGUGAAGACAUGAGGAUCACCCAUGUAGAGGCCCGGACAGGGUUCGCAGGUAGGUCGCGCCUGGUGCC [#1 Same State - Arginine B Attempt #9 (HarryS)] | 26.8 |
| ACGGAGAUUGCUAAAUGUUGGCGAGCGGAUACCAGCCUAUAAUCGGGCCCUUGGCAGCCGACAUGAGGAUCACCCAUGUAAACAA [Gelelaor] | 87.3 |

Same assay, conditions: Eterna round: R107; input ligand: tryptophan 2.4 mM

| Sequence | apparent KD of MS2 coat protein [nM] |
| --- | --- |
| UUAAUCUUUAUUGAAAACAAUAAAGCAGAAGGAGCGUGAUAAAACACAGGUAGGUCGCUGAAGGGAACAUGAGGAUCACCCAUGU [AstrosSSArgA#13] | 24.1 |
| ACAUGAGGAUCACCCAUGUACAUAAGGGAAGGAGCGCGGUGAGACGCAGGUAGGUCGCCCAUAAUAACAAACAUUAAAUUCAUGU [#25 Same State - Arginine A] | 19.1 |
| UCUUACUAUAGUGAUACCAGACGUACAUGAGGAUCACCCAUGUUACAUUCUUGGUUAAAAGUCCCUUGGCAGCACGAUUUGUUCG [JR_Nu_ExcTheophyB_Sub026] | 9.76 |
| AACAUGAGGAUCACCCAUGUGUCCCUUGAUACCAGUCCCAUGUGAGACCCUUGGCAGCAAACAUGAGGAUCACCCAUGUCCCAUG [Same State Theophylline A 3] | 90.2 |
| AAAGGCGGGCAGGAUACCAGCGCUAACAUGAGGAUCACCCAUGUACAAAUAAUAACAUGGUGCCCUUGGCAGCCUGGGCGUCUGC [Usedlati] | 61.3 |
| UCGUAGCUAGGAAGGAGCGCAUACUUCACAUGAGGAUCACCCAUGUCGAGACGUGAGUCAGUGCAGGUAGGUCGCCUAGCUAUGA [Same State - Arginine B (Freestyle 26)] | 19.3 |
| AUGUCGUUGAAUACAGCGGCAUGGAGUGAUACCAGAAUGAUCAAAUUCCCUUGGCAGCAUGACAUGAGGAUCACCCAUGUUCGAU [SSTheo A #15] | 77.5 |
| AGCUCAUAGAGUGAUACCAGACUACAUGAGGAUCACCCAUGUUUCUUUUGGUUAUCAUGUGUCCCUUGGCAGCACAAGAAGAGCA [JR_ExcTheophyB_Sub015] | 12.7 |
| AGACAUGAGGAUCACCCAUGUAGUAUGGAUACCAGAUCCAGAUUUAUCCCUUGGCAGCUGUGGUACAGCGUUGCAACGCUCCUAG [Exclusion - Theophylline A (Freestyle 14)] | 31.8 |
| UGUCUAGUAAUCGAUACCAGCUACAUGAGGAUCACCCAUGUAGUUCGAACGGCCGCAUGUAGCCCUUGGCAGCGAAUAGUUACAU [Onbitelege] | 18.7 |
| GGACUAACCAGAAGGAGCGACACGCAGAAACUGCUAUUUCCUCCGCACGAGGAUCACCCGUGUCAGGUAGGUCGCUGGUUAGUCG [ArgBX 28] | 21.4 |
| GAUGAUAUUGCAGAUACCAGACACAUGAGGAUCACCCAUGUCGCUGGGUCGCUGGGUCGUGUCCCUUGGCAGCUGCGAUAUCAUC [Tibet] | 21.4 |
| AGCUCGCAUCCUCUAGCGUCAAAGACGCGUCGAGGACCGGUACGGCCGCCACUCGACUUGAGGAUCACCCAGGUCAAAGCGAGCA [TrypAX 13 #SwitchBubble #AlternativeMS2 #MS2Late #CuTurnoff] | 138 |
| AUUAAUAGUUGUGAUACCAGACGAACAUGAGGAUCACCCAUGUAACUUUUAGGUGUUGUAGUCCCUUGGCAGCACUAUGUAGUUA [JR_SSTheophyB_Sub013] | 32.6 |
| GGCAGUCAUAGCAGGGCAAAUAUACUCGAAGGAGCGUCAUAGUAGGCAGGUAGGUCGCGAGACAUGAGGAUCACCCAUGUAGAGA [uuumullin] | 49.3 |
| AACAUACAUGAGGAUCACCCAUGUCACGAUACCAGAUACAUGAGGAUCCCUUGGCAGCGUCAUGAGGAUCACCCAUGUUGUACAU [Exclusion Theophylline A 2] | 17.7 |

| Sequence | apparent KD of MS2 coat protein [nM] |
| --- | --- |
| ACAUGAGGAUCACCCAUGUACAUGAGGGAAGGAGCGGUACAUGUGCCAGGUAGGUCGCCCAACAGCAUCAGCCAUGUACAUCAGC [ppsmullin] | 49.7 |
| AGAGUCAGACAAAAGUCUGGCUCAGCCGAAGGAGCGUCCGAAAGGACAGGUAGGUCGCGGUUACCUGAGGAUCACCCAGGUUCCU [ArgAS 24 #OpenEnded #AlternativeMS2] | 91.5 |
| CACUAUGAGGUCGAUACCAGUACUGAGUUGUACAUGAGGAUCACCCAUGUAAAUGUUCGCUACCCUUGGCAGCGAUAACAUUGCA [theeternabot_sameState_MS2_Theo_B_34] | 246 |
| GCUGCCAUACGAAGGAGCGCUGGUGUAAUGAGGCGAACAUGAGGAUCACCCAUGUGGCAUAAGCAGGUAGGUCGCGUAUGGCAGC [EAB #16] | 15.9 |
| AAGCUGACAAGAAGGUGUUCCUAAGCUGAUACCAGCCUGGAAACAGGCCCUUGGCAGCAGCACAUGAGGAUCACCCAUGUAAUAA [(T)'-(M)'-(T1)-(T2)-(M1)-(M2)_Design2(Mismatches)] | 115 |
| AAACGUUGCUGCGAUACCAGACAUGAGGAUCACCCAUGUACCAAGGUAACCGAAAGGCAUGUCCCUUGGCAGCGCAGCAACGAAA [MAT - Exclusion Theophlline B - Mod of Eli - D17] | 13.5 |
| UAUAGUGUGAUGGAUACCAGCAGAGAAAACGUUUAUCCUAACAUGAGGAUCACCCAUGUAUGCCCUUGGCAGCUGUUGUGUUAUA [8.O] | 30.3 |
| GACGGUACGUCGGCAAAGCCGAUGUGCCAGCGAGGACCGGUACGGCCGCCACUCGUACAUGAGGAUCACCCAUGUCCGGUCCGUC [Omei Trp SS A C v3] | 129 |
| CGUGCUAGGGCGGCCGCCACUGUGGCUACGGUACAUGAGGAUCACCCAUGUUUGUGGUUGAUCUACAGGACCGGGCCCUGGCACG [Radiaerdi] | 280 |
| GCUUCACAUGAGGAUCACCCAUGUCCGGAUACCAGCUCUCCAGACAGCCCUUGGCAGCCGAGCGCCCGAUUAUAUACCCUAGGAG [theeternabot_sameState_MS2_Theo_A_28] | 27.9 |
| AAGCAGGGUGUAAAAUAAAUAAUCACUGAUACCAGACUAUGAGAUGUCCCUUGGCAGCAGAAACAUGAGGAUCACCCAUGUAAUA [JR_Nu_ExcTheophyA_Sub029] | 27.3 |
| AGAGUUAGACAAAAGUCUAGCUCACCAGAAGGAGCGUCCGAAAGGACAGGUAGGUCGCUGGUGCACGAGGAUCACCCGUGUUCCU [ArgAS 21 #OpenEnded #AlternativeMS2] | 67.3 |
| GCAGUGGGUUAUAAGUAAUAGAAUUCUGAAGGAGCGUGAUGAAACACAGGUAGGUCGCAGGAACAUGAGGAUCACCCAUGUACGG [Same State Arginine A GF20] | 50.3 |
| GCGCUAUUUAUUGAUACCAGAUACAGGAAUCACAUGAGGAUCACCCAUGUGGAAUGAAGGAUCCCUUGGCAGCAAUAGUCAAAAU [theeternabot_sameState_MS2_Theo_B_9] | 19.9 |
| GGCACCAGGCGAAGGAGCGUGAAGACAUGAGGAUCACCCAUGUAGAGGCCCGGACAGGGUUCGCAGGUAGGUCGCGCCUGGUGCC [#1 Same State - Arginine B Attempt #9 (HarryS)] | 13.5 |
| ACGGAGAUUGCUAAAUGUUGGCGAGCGGAUACCAGCCUAUAAUCGGGCCCUUGGCAGCCGACAUGAGGAUCACCCAUGUAAACAA [Gelelaor] | 58.6 |

Source: the supplement of paper PMC9170038
